From patent US12269859B2, “Synthetic immune receptors and methods of use thereof” (Angeles Therapeutics, Inc., priority 2016, dated 2025)

Tested on: target antigen-expressing cell line
Test: Jurkat NFAT-GFP assay, coculture with target cell lines expressing the respective target antigen (summary Table 10A)
Type: cell-based, human
Set-up: key: The signs +/−, +, 2+ etc. after the name of the cell lines indicate the relative degree of positivity on the Jurkat-NFAT-GFP assay as measured by the % GFP positive cells; +: relative degree of positivity on the Jurkat-NFAT-GFP assay as measured by the % GFP positive cells; 2+: relative degree of positivity on the Jurkat-NFAT-GFP assay as measured by the % GFP positive cells
Settings: relative % GFP positive cells; for NFAT-GFP ASSAY Positive Cell lines: RAJI: SIR-expressing Jurkat-NFAT-GFP cells cocultured with RAJI; for NFAT-GFP ASSAY Positive Cell lines: NALM6: SIR-expressing Jurkat-NFAT-GFP cells cocultured with NALM6
Summary of the method: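 Read-out: % GFP+ cells by FACS. SIR-transduced, puromycin-selected Jurkat NFAT-GFP (IL-2 promoter reporter) cocultured ~4–18 h with target line, E:T ~1:2; parental cells as control; graded +/−, +, 2+ relative to parental.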

| Molecule | NFAT-GFP ASSAY Positive Cell lines: RAJI | NFAT-GFP ASSAY Positive Cell lines: L363 (SIR-expressing Jurkat-NFAT-GFP cells cocultured with L363) | NFAT-GFP ASSAY Positive Cell lines: U266 (SIR-expressing Jurkat-NFAT-GFP cells cocultured with U266) | NFAT-GFP ASSAY Positive Cell lines: NALM6 |
| --- | --- | --- | --- | --- |
| 032216-C04 (protein, Polynucleotide encoding a Synthetic Immune Receptor (SIR)) MALPVTALLLPLALLLHAARPDIVLTQSPATLSLSPGDRATISCRASESVTILGSHLIYWYQQKPGQPPRLLIQLASNVQTGVPARFSGSGSRTDFTLTISSVEPEDFAVYYCLQSRTIPRTFGQGTKLEIKRLEGKPIPNPLLGLDSTGSGEDLKNVFPPEVAVFEPSKAEIAHTQKATLVCLATGFYPDHVELSWWVNGKEVHSGVCTDPQPLKEQPALNDSRYCLSSRLRVSATFWQNPRNHFRCQVQFYGLSENDEWTQDRAKPVTQIVSAEAWGRADCGITSASYHQGVLSATILYEILLGKATLYAVLVSALVLMAMVKRKDSRGRAKRSGSGATNFSLLKQAGDVEENPGPTSMDWIWRILFLVGAATGAHSFEQVQLVQSGPEVKKPGESVKISCKASGYTFRHYSMNWVKQAPGQGLKWMGRINTESGVPIYADDFKGRFSFTVDTSASTAYLEISSLTSEDTAVYFCSNDYLYSLDFWGQGTTLTVSSTREQKLISEEDGSGIQNPDPAVYQLRDSKSSDKSVCLFTDFDSQTNVSQSKDSDVYITDKCVLDMRSMDFKSNSAVAWSNKSDFACANAFNNSIIPEDTFFPSSDVPCDVKLVEKSFETDTNLNFQNLSVIGFRILLLKVAGFNLLMTLRLWSSRAKRSGSGVKQTLNFDLLKLAGDVESNPGPSRGHMTEYKPTVRLATRDDVPRAVRTLAAAFADYPATRHTVDPDRHIERVTELQELFLTRVGLDIGKVWVADDGAAVAVWTTPESVEAGAVFAEIGPRMAELSGSRLAAQQQMEGLLAPHRPKEPAWFLATVGVSPDHQGKGLGSAVVLPGVEAAERAGVPAFLETSAPRNLPFYERLGFTVTADVEVPEGPRTWCMTRKPGA | 2+ |  |  |  |
| 102116-D01 (protein, Synthetic Immune Receptor (SIR)) MALPVTALLLPLALLLHAARPLEGKPIPNPLLGLDSTGSGEDLKNVFPPEVAVFEPSKAEIAHTQKATLVCLATGFYPDHVELSWWVNGKEVHSGVCTDPQPLKEQPALNDSRYCLSSRLRVSATFWQNPRNHFRCQVQFYGLSENDEWTQDRAKPVTQIVSAEAWGRADCGITSASYHQGVLSATILYEILLGKATLYAVLVSALVLMAMVKRKDSRGRAKRSGSGATNFSLLKQAGDVEENPGPTSTMALPVTALLLPLALLLHAARPQAVLTQPPSASGTPGQRVTISCSGSSSNIGSYTVSWYQQLPGTAPKFLIYSNNQRPSGVPDRFSGSKSGTSASLAISGLQSEDEADYYCAAWDDSLNGYVFGTGTKVTVLGGGGGSGGGGSGGGGSEVQLVQSGAEVKKPGESLKISCKGSGYDFTTYWIGWVRQMPGKGLEWMGIIYPGDSDTRYSPSVRGRVTISADKSINTAYLQWSSLEASDTAMYYCARMWTFSQDGWGQGTLVTVSSTREQKLISEEDGSGIQNPDPAVYQLRDSKSSDKSVCLFTDFDSQTNVSQSKDSDVYITDKCVLDMRSMDFKSNSAVAWSNKSDFACANAFNNSIIPEDTFFPSSDVPCDVKLVEKSFETDTNLNFQNLSVIGFRILLLKVAGFNLLMTLRLWSSRAKRSGSGVKQTLNFDLLKLAGDVESNPGPSRGHMTEYKPTVRLATRDDVPRAVRTLAAAFADYPATRHTVDPDRHIERVTELQELFLTRVGLDIGKVWVADDGAAVAVWTTPESVEAGAVFAEIGPRMAELSGSRLAAQQQMEGLLAPHRPKEPAWFLATVGVSPDHQGKGLGSAVVLPGVEAAERAGVPAFLETSAPRNLPFYERLGFTVTADVEVPEGPRTWCMTRKPGA |  | L363 (2+), U266 | (2+) |  |
| 022817-J01 (protein) MALPVTALLLPLALLLHAARPLEGKPIPNPLLGLDSTGSGEDLKNVFPPEVAVFEPSKAEIAHTQKATLVCLATGFYPDHVELSWWVNGKEVHSGVCTDPQPLKEQPALNDSRYCLSSRLRVSATFWQNPRNHFRCQVQFYGLSENDEWTQDRAKPVTQIVSAEAWGRADCGITSASYHQGVLSATILYEILLGKATLYAVLVSALVLMAMVKRKDSRGRAKRSGSGATNFSLLKQAGDVEENPGPTSMALPVTALLLPLALLLHAARPQIVLTQSPATLSASPGEKATMTCSASSGVNYMHWYQQKPGTSPKRWIYDTDKTASGVPARFSGSGSGTSYSLTISSMEAEDAATYYCHQRGSYTFGGGTKLEIKGGGGSGGGGSGGGGSQVQLEQPGAEVVKPGASVKVSCKTSGYTFTSNWMHWVKQTPGKGLEWIGEIDPSDSYTNYNQKFDGKAKLTVDKSSSTAYMEVSDLTAEDSATYYCARGSNPYYYAMDYWGQGTSVTVSSTREQKLISEEDGSGIQNPDPAVYQLRDSKSSDKSVCLFTDFDSQTNVSQSKDSDVYITDKCVLDMRSMDFKSNSAVAWSNKSDFACANAFNNSIIPEDTFFPSSDVPCDVKLVEKSFETDTNLNFQNLSVIGFRILLLKVAGFNLLMTLRLWSSRAKRSGSGVKQTLNFDLLKLAGDVESNPGPSRGHMTEYKPTVRLATRDDVPRAVRTLAAAFADYPATRHTVDPDRHIERVTELQELFLTRVGLDIGKVWVADDGAAVAVWTTPESVEAGAVFAEIGPRMAELSGSRLAAQQQMEGLLAPHRPKEPAWFLATVGVSPDHQGKGLGSAVVLPGVEAAERAGVPAFLETSAPRNLPFYERLGFTVTADVEVPEGPRTWCMTRKPGA | RAJI (+), NALM6 |  |  | (+/−) |
| 110217-A03 (protein) MALPVTALLLPLALLLHAARPDVVMTQSPSSLSASVGDRVTITCRASQDISKYLNWYQQKPGKAPKLLIYHTSRLHSGVPSRFSGSGSGTDFTLTISSLQPEDFATYYCQQGNTLPYTFGGGTKVEIKLEDLKNVFPPEVAVFCPSEAEISHTQKATLVCLATGFYPDHVELSWWVNGKEVHSGVSTDPQPLKEQPALNDSRYCLSSRLRVSATFWQNPRNHFRCQVQFYGLSENDEWTQDRAKPVTQIVSAEAWGRADCGFTSESYQQGVLSATILYEILLGKATLYAVLVSALVLMAMVKRKDSRGRAKRSGSGATNFSLLKQAGDVEENPGPTSMDWIWRILFLVGAATGAHSFEQVQLQESGPGLVKPSQTLSLTCTVSGVSLPDYGVSWIRQPPGKGLEWIGVIWGSETTYYNSALKSRVLISVDTSKNQVSLKLSSVTAADTAVYYCARHYYYGGSYAMDYWGQGTTVTVSSTRIQNPDPAVYQLRDCKSSDKSVCLFTDFDSQTNVSQSKDSDVYITDKTVLDMRSMDFKSNSAVAWSNKSDFACANAFNNSIIPEDTFFPSPESSCDVKLVEKSFETDTNLNFQNLSVIGFRILLLKVAGFNLLMTLRLWSS | RAJI (+/−), NALM6 |  |  | (+/−) |
| 110217-B04 (protein) MALPVTALLLPLALLLHAARPDVVMTQSPSSLSASVGDRVTITCRASQDISKYLNWYQQKPGKAPKLLIYHTSRLHSGVPSRFSGSGSGTDFTLTISSLQPEDFATYYCQQGNTLPYTFGGGTKVEIKLEDLKNVFPPEVAVFEPSEAEISHTQKATLVCLATGFYPDHVELSWWVNGKEVHSGVSTCPQPLKEQPALNDSRYCLSSRLRVSATFWQNPRNHFRCQVQFYGLSENDEWTQDRAKPVTQIVSAEAWGRADCGFTSESYQQGVLSATILYEILLGKATLYAVLVSALVLMAMVKRKDSRGRAKRSGSGATNFSLLKQAGDVEENPGPTSMDWIWRILFLVGAATGAHSFEQVQLQESGPGLVKPSQTLSLTCTVSGVSLPDYGVSWIRQPPGKGLEWIGVIWGSETTYYNSALKSRVLISVDTSKNQVSLKLSSVTAADTAVYYCARHYYYGGSYAMDYWGQGTTVTVSSTRIQNPDPAVYQLRDSKSSDKSVCLFTDFDSQTNVSQSKDSDVYICDKTVLDMRSMDFKSNSAVAWSNKSDFACANAFNNSIIPEDTFFPSPESSCDVKLVEKSFETDTNLNFQNLSVIGFRILLLKVAGFNLLMTLRLWSS | RAJI (+/−), NALM6 |  |  | (+/−) |
| 110217-C03 (protein) MALPVTALLLPLALLLHAARPDVVMTQSPSSLSASVGDRVTITCRASQDISKYLNWYQQKPGKAPKLLIYHTSRLHSGVPSRFSGSGSGTDFTLTISSLQPEDFATYYCQQGNTLPYTFGGGTKVEIKLEDLKNVFPPEVAVFEPSEAEISHTQKATLVCLATGFYPDHVELSWWVNGKEVHSGVSTDPQPLKEQPALNDSRYCLCSRLRVSATFWQNPRNHFRCQVQFYGLSENDEWTQDRAKPVTQIVSAEAWGRADCGFTSESYQQGVLSATILYEILLGKATLYAVLVSALVLMAMVKRKDSRGRAKRSGSGATNFSLLKQAGDVEENPGPTSMDWIWRILFLVGAATGAHSFEQVQLQESGPGLVKPSQTLSLTCTVSGVSLPDYGVSWIRQPPGKGLEWIGVIWGSETTYYNSALKSRVLISVDTSKNQVSLKLSSVTAADTAVYYCARHYYYGGSYAMDYWGQGTTVTVSSTRIQNPDPAVYQLRDSKSSDKSVCLFTDFDSQTNVSQSKDSDVYICDKTVLDMRSMDFKSNSAVAWSNKSDFACANAFNNSIIPEDTFFPSPESSCDVKLVEKSFETDTNLNFQNLSVIGFRILLLKVAGFNLLMTLRLWSS | RAJI (+/−), NALM6 |  |  | (+/−) |
| 110217-D01 (protein) MALPVTALLLPLALLLHAARPDVVMTQSPSSLSASVGDRVTITCRASQDISKYLNWYQQKPGKAPKLLIYHTSRLHSGVPSRFSGSGSGTDFTLTISSLQPEDFATYYCQQGNTLPYTFGGGTKVEIKLEDLKNVFPPEVAVFEPCEAEISHTQKATLVCLATGFYPDHVELSWWVNGKEVHSGVSTDPQPLKEQPALNDSRYCLSSRLRVSATFWQNPRNHFRCQVQFYGLSENDEWTQDRAKPVTQIVSAEAWGRADCGFTSESYQQGVLSATILYEILLGKATLYAVLVSALVLMAMVKRKDSRGRAKRSGSGATNFSLLKQAGDVEENPGPTSMDWIWRILFLVGAATGAHSFEQVQLQESGPGLVKPSQTLSLTCTVSGVSLPDYGVSWIRQPPGKGLEWIGVIWGSETTYYNSALKSRVLISVDTSKNQVSLKLSSVTAADTAVYYCARHYYYGGSYAMDYWGQGTTVTVSSTRIQNPDPAVCQLRDSKSSDKSVCLFTDFDSQTNVSQSKDSDVYITDKTVLDMRSMDFKSNSAVAWSNKSDFACANAFNNSIIPEDTFFPSPESSCDVKLVEKSFETDTNLNFQNLSVIGFRILLLKVAGFNLLMTLRLWSS | RAJI (+/−), NALM6 |  |  | (+/−) |
